Source: patent publication US20130142806A1 (Eli Lilly, published 2013)
Substitutions are numbered along the chain they refer to. Names and notes keep the numbering of the source. Square brackets hold non-standard residues; d marks the D form. pGlu = O=C1CC[C@@H](C(=O)O)N1

T1: pE3-16 (Pyr-…-biotin) (human)
T1 construct: also called pE3-16B
T1 peptide: [pGlu]FRHDSGYEVHHQK-biotin

B1: Antibody II (R17L) (antibody, human IgG1, kappa, V domains shown)
VH: QVQLVQSGAEVKKPGSSVKVSCKASGYTFTRYYINWVRQAPGQGLEWMGWINPGSGNTKYNEKFKGRVTITADESTSTAYMELSSLRSEDTAVYYCAREGTTVYWGQGTTVTVSS
VL: DIVMTQTPLSLSVTPGQPASISCKSSQSLLYSRGKTYLNWLLQKPGQSPQLLIYAVSKLDSGVPDRFSGSGSGTDFTLKISRVEAEDVGVYYCVQGTHYPFTFGQGTKLEIKR
notes: Human engineered anti-N3pGlu Aβ monoclonal antibody
B2: Antibody VII (mE8c) (antibody, mouse IgG2a, kappa, V domains shown)
VH: EVQLLESGPELVKPGASVKISCKASGYTFTDYYINWVKQRPGQGLEWIGWINPGSGNTKYNEKFKGKATLTVDTSSSTAYMQLSSLTSEDSAVYFCTREGETVYWGQGTTLTVSS
VL: B1 VL with D1N, M4L, S10T, P15I, K44R, Q50K, L51R, S68I, V88L, Q105S
notes: Mouse IgG2a isotype of the mE8 clone; also called mE8c - IgG2a; parental mouse antibody
B3: Antibody I (B12L) (antibody, human IgG1, kappa, V domains shown)
VH: B1 VH with T28D, T101I
VL: B1 VL
notes: as for B1

Biological target: T1, pE3-16 (Pyr-…-biotin)
Experiment: SPR (BIACORE 2000), antibody captured, peptide injected

| Binder | binding result |
| --- | --- |
| B1 | binds |
| B2 | binds |
| B3 | binds |

These binders were tested against T2, Aβ1-40 (UniProt P05067 672-711) in the same assay as above.
T2 construct: domain: Aβ1-40; The numbers 1-40 count on the Aβ peptide, not on the APP precursor
T2 sequence (P05067 672-711 limits assumed): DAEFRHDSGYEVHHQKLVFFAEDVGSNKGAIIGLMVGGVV

| Binder | binding result |
| --- | --- |
| B1 | no binding |
| B2 | no binding |
| B3 | no binding |
